The record followed here is publication PMC8615521, “Mitochondria-Mediated Apoptosis of HCC Cells Triggered by Knockdown of Glutamate Dehydrogenase 1: Perspective for Its Inhibition through Quercetin and Permethylated Anigopreissin A” (Biomedicines, 2021).

For the data set, the system named is O=C(O)CCC(=O)C(=O)O. The data set is described as follows: purified protein. Conditions: NADH.

For orientation: Km means the concentration of substrate that gives half-maximal velocity.

Sequence of GDH1 from bovine liver (glutamate dehydrogenase 1) (Bos taurus) (chain, as listed by the source): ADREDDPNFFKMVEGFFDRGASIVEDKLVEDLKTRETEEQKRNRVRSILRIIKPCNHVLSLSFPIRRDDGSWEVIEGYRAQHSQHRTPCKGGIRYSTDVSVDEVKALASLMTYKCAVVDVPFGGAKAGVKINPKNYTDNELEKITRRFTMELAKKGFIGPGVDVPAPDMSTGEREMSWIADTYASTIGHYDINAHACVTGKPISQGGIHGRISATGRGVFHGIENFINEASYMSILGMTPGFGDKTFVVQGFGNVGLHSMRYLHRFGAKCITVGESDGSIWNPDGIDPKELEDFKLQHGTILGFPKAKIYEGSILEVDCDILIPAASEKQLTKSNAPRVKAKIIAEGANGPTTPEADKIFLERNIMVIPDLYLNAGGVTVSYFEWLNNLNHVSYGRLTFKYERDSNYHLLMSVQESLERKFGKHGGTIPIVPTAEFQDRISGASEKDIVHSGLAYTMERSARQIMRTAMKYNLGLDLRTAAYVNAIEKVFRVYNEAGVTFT

On to “GDH1 from bovine liver (glutamate dehydrogenase 1) (Bos taurus)”, for which the Km was 840 ± 20 µM.
